Assay results reported in US20220298235A1 (AKESO BIOPHARMA, published 2022).
Blank lines part the entries; values can stand above or below the binder they belong to.

Experiments:
[1] = target: T1, human IL-23 (IL-23-His-Biotin) (human, UniProt Q9NPF7 20-189; P29460 23-328, biotin label, site not stated); assay: FACS competition, IL23-His-Biotin (4 µg/mL mixed 1:1) on 293T-IL-12Rβ1&IL-23R cells
T1 construct: Akesobio lot 20161209; His-tagged and biotinylated
T1 sequence (looked up) 1: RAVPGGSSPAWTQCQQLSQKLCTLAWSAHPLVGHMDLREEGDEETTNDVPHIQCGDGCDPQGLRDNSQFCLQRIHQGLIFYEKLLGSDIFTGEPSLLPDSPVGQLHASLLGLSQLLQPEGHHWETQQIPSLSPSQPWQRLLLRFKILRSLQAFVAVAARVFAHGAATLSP
T1 sequence (looked up) 2: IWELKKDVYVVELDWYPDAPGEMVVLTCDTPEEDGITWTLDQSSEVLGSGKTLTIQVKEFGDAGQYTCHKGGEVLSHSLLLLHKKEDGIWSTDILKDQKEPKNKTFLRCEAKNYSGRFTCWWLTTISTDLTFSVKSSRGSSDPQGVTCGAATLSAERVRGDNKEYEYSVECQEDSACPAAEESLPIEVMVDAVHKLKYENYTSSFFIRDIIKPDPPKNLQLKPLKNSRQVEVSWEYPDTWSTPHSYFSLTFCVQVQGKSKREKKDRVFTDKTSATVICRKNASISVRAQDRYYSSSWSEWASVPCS
Experimental: 200 μL of 1% PBSA was added into each sample, and the mixture was centrifuged at 1200 rpm for 5 min to discard the supernatant. According to experiment design, correspondingly diluted antibody (highest concentration of 60 μg/mL, 3-fold dilution, 8 concentrations in total) and human IL23-His-Biotin (Akeso Biopharma, Inc., Lot. No.: 20161209) (4 μg/mL) were mixed at a ratio of 1:1, and a blank control was set. The mixture of antibody and IL23-His-Biotin was incubated on ice for 30 min and then added to the cell precipitate at 100 μL/sample. The resulting mixture was well mixed and incubated on ice for 60 min. 200 μL of 1% PBSA was added, and the mixture was centrifuged at 1200 rpm for 5 min to discard the supernatant, and then washed twice. FITC Steptavidin (Biolegend, Cat. No.: 405202) was diluted at a ratio of 1:500 and added to each tube at 100 μL. The mixture was well mixed and incubated on ice for 40 min in the absence of light. 200 μL of 1% PBSA was added, and the mixture was centrifuged at 1200 rpm for 5 min to discard the supernatant, and then washed twice. 1% PBSA was added at 200 μL/tube, and the cells were resuspended and transferred to a flow cytometry tube for testing.

human p40-His [2] = target: T2, human p40-His (human, UniProt P29460 23-328); assay: indirect ELISA, p40-His coat 0.25 µg/mL
T2 construct: Made by Akeso Biopharma; construct limits and tag not described; also called human IL-12/IL-23 p40 protein domain; human IL-12/IL-23 p40; not shown: His tag
T2 sequence (looked up): T1 sequence (looked up) 2
Experimental: (§1) A microplate was coated with human p40-His (Akeso Biopharma, Inc.; gene of p40: GeneBank NM002187). After incubation at 4° C. for no less than 12 h, the plate was washed with PBST, patted dry and blocked with a solution of 1% BSA in PBS. After blocking was completed, the plate was washed with PBST and patted dry. The antibody diluted with PBST solution in gradient was added into the wells of the plate, and the antibody dilution gradient is detailed in Table 1. The plate containing the test antibody was incubated at 37° C. for 30 min and then washed with PBST and patted dry. […] TMB (Neogen, 308177) was added for color developing for 5 min in the absence of light, and then stop solution was added to terminate the chromogenic reaction. Then the plate was put into a plate reader immediately, and the OD value of each well in the plate was read at 450 nm. The data were analyzed by SoftMax Pro 6.2.1.
The binding EC₅₀ of antibody was calculated by curve fitting using antibody concentration as the abscissa and absorbance value as the ordinate, and the results are shown in Table 4 below.

Human IL12 (His Tag) = target: T3, Human IL12 (His Tag) (human, UniProt P29459 23-219; P29460 23-328); assay: FACS competition, IL12-His (40 nM mixed 1:1) on 293T-IL-12Rβ1&IL-23R cells
T3 construct: Bought His-tagged heterodimer
T3 sequence (looked up) 1: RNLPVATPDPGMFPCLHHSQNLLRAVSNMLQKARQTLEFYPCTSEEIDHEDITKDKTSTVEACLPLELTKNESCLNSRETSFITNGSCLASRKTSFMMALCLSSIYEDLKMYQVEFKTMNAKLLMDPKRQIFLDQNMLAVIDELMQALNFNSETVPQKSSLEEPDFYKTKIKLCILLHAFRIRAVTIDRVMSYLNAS
T3 sequence (looked up) 2: T1 sequence (looked up) 2
Experimental: 200 μL of 1% PBSA was added into each sample, and the mixture was centrifuged at 1200 rpm for 5 min to discard the supernatant. According to experiment design, correspondingly diluted antibody (highest final concentration of 60 μg/mL, 3-fold dilution, 8 concentrations in total) and IL12-His (Sino Biological, Cat. No.: CT-050-H08H-20) (40 nM) were mixed at a ratio of 1:1, and a blank control was set. The mixture of antibody and IL12 was incubated on ice for 30 min and then added to the cell precipitate at 100 μL/sample. The resulting mixture was well mixed and incubated on ice for 60 min 200 μL of 1% PBSA was added, and the mixture was centrifuged at 1200 rpm for 5 min to discard the supernatant, and then washed twice. THETM His tag antibody (FITC) (Genscript, Cat. No.: A01620) was diluted at a ratio of 1:500 and added to each tube at 100 μL. The mixture was well mixed and incubated on ice for 40 min in the absence of light. 200 μL of 1% PBSA was added, and the mixture was centrifuged at 1200 rpm for 5 min to discard the supernatant, and then washed twice. 1% PBSA was added at 200 μL/tube, and the cells were resuspended and transferred to a flow cytometry tube for testing.

human p40-His [3] = target: T2, human p40-His; assay: indirect ELISA, p40-His coat 0.125 µg/mL
Experimental: as §1
The binding EC₅₀ of antibody was calculated by curve fitting using antibody concentration as the abscissa and absorbance value as the ordinate, and the results are shown in Table 2 below.

human p40-His [4] = target: T2, human p40-His; assay: indirect ELISA, p40-His coat 0.125 µg/mL; remark: listed apart in the source
Experimental: as §1
The binding EC₅₀ of antibody was calculated by curve fitting using antibody concentration as the abscissa and absorbance value as the ordinate, and the results are shown in Table 1 below.

EC50 [1]: 1.43 µg/mL
EC50 (human p40-His [2]): 0.077 nM
EC50 (Human IL12 (His Tag)): 1.58 µg/mL
B1: ustekinumab (antibody, V domains shown)
VH: EVQLVQSGAEVKKPGESLKISCKGSGYSFTTYWLGWVRQMPGKGLDWIGIMSPVDSDIRYSPSFQGQVTMSVDKSITTAYLQWNSLKASDTAMYYCARRRPGQGYFDFWGQGTLVTVSS
VL: DIQMTQSPSSLSASVGDRVTITCRASQGISSWLAWYQQKPEKAPKSLIYAASSLQSGVPSRFSGSGSGTDFTLTISSLQPEDFATYYCQQYNIYPYTFGQGTKLEIK

EC50 (human p40-His [3]): 0.057 nM
B2: H5L10 (antibody, human IgG1, kappa, V domains shown)
VH: EVQLVQSGAEVKKPGESLKISCQSSGYSFTTYWIGWVRQMPGQGLEWIGIMSPVDSDIRYNPMFRGQVTMSVDKSSSTAYLQWSSLKASDTAMYYCARRRPGQGYFDFWGQGTMVTVSS
VL: EIVLTQSPATLSASPGERATISCRASQSVGSWLAWYQQKPGQAPRSLIYAASNLQSGIPARFSGSGSGTDFTLTISSLEPEDFAVYYCQQYNIYPYTFGQGTRLEIKR
notes: human IgG1 / kappa constant regions; also called humanized antibody H5L10

EC50 (human p40-His [4]): 0.079 nM
B3: H5L9 (antibody, human IgG1, kappa, V domains shown)
VH: B2 VH
VL: DIQMTQSPSSLSASVGDRVTITCKASQNVGSWLAWYQQKPGKAPKSLIYSASSRQSGVPSRFSGSGSGTDFTLTISSLQPEDFATYYCQQYDIYPFTFGQGTKLEIKR
notes: human IgG1 (P01857) / kappa (P01834) constant regions; also called humanized antibody H5L9
